Measurements published in patent US6921496.

Target: IgG (immobilised on resin in a column)
Test: IgG-functionalised resin column, about 15 min reaction, buffer wash; effluent monitored for nanoparticle luminescence

protein G-zipper fusion protein (IgG binding b2 sub-domain of streptococcal protein G, linker, basic leucine zipper tail, hexahistidine), electrostatically attached to CdSe-ZnS dihydrolipoic acid nanoparticles (from UniProt P19909 373-427)
percent of ionic bioconjugates retained by the column: 95 to 98%
